Values belong to the binder of their own block, whether it stands above or below them. Starred links: 1 amine or outer side, 2 acyl side, 3 side chain; linkers in the order of their positions; H or OH if unused. Positions of bridges follow the written chain, without caps; N, C: chain ends. Non-standard residues stand in square brackets, D forms with d. Primed or numbered codes have the meaning given here. *: point of attachment. Aph(2Ta5Sa)″ = 4-amino-L-phenylalanine, ring amine acylated by 5-sulfamoyl-thiophene-2-carboxylic acid, NS(=O)(=O)c1ccc(C(=O)Nc2ccc(C[C@H](N[*:1])C(=O)[*:2])cc2)s1; Af3(2Ta5Sa) = 3-amino-L-phenylalanine, ring amine acylated by 5-sulfamoyl-thiophene-2-carboxylic acid, NS(=O)(=O)c1ccc(C(=O)Nc2cccc(C[C@H](N[*:1])C(=O)[*:2])c2)s1; Aph(5SaPyr2) = 4-amino-L-phenylalanine, ring amine acylated by 5-sulfamoylpyridine-2-carboxylic acid, NS(=O)(=O)c1ccc(C(=O)Nc2ccc(C[C@H](N[*:1])C(=O)[*:2])cc2)nc1; Af3(3Ta5Sa) = 3-aminophenylalanine, ring amine acylated with 5-sulfamoylthiophene-3-carboxylic acid, NS(=O)(=O)c1cc(C(=O)Nc2cccc(C[C@H](N[*:1])C(=O)[*:2])c2)cs1; Aph(3MSaBz) = 4-aminophenylalanine, ring amine acylated with 3-(sulfamoylmethyl)benzoic acid, NS(=O)(=O)Cc1cccc(C(=O)Nc2ccc(C[C@H](N[*:1])C(=O)[*:2])cc2)c1; Af3(3SaBz) = 3-aminophenylalanine, ring amine acylated with 3-sulfamoylbenzoic acid, NS(=O)(=O)c1cccc(C(=O)Nc2cccc(C[C@H](N[*:1])C(=O)[*:2])c2)c1; Af3(OPyAc) = 3-aminophenylalanine, ring amine acylated with 2-(2-oxopyridin-1-yl)acetic acid, O=C(Cn1ccccc1=O)Nc1cccc(C[C@H](N[*:1])C(=O)[*:2])c1; Aph(3SaBz) = 4-aminophenylalanine, ring amine acylated with 3-sulfamoylbenzoic acid, NS(=O)(=O)c1cccc(C(=O)Nc2ccc(C[C@H](N[*:1])C(=O)[*:2])cc2)c1; Af3(HO-Dga) = 3-aminophenylalanine, ring amine acylated with carboxymethoxy-acetic acid, O=C(COCC(=O)[*:3])Nc1cccc(C[C@H](N[*:1])C(=O)[*:2])c1; Aph(SaPr) = 4-amino-L-phenylalanine, ring amine acylated by 3-sulfamoylpropanoic acid, NS(=O)(=O)CCC(=O)Nc1ccc(C[C@H](N[*:1])C(=O)[*:2])cc1; 3MeBn″ = 3-methylbenzylidene, m-xylene unit (from alpha,alpha'-dibromo-m-xylene) joined to both Cys S by thioether linkages; Aph(HYDAc) = 4-amino-L-phenylalanine, ring amine acylated by hydantoin-5-acetic acid; Phe(3-NHCO(CH2)3SO2NH2) = N[C@@H](Cc1cccc(NC(=O)CCCS(N)(=O)=O)c1)C(=O)O; DOTA = O=C(O)CN1CCN(CC(=O)O)CCN(CC(=O)*)CCN(CC(=O)O)CC1; Phe(3,4-Cl2) = N[C@@H](Cc1ccc(Cl)c(Cl)c1)C(=O)O; Phe(3-CF3) = N[C@@H](Cc1cccc(C(F)(F)F)c1)C(=O)O; PPAc = 4-carboxymethyl piperazine linker; mXylylene = c1cc(C[*:1])cc(C[*:2])c1; N4AzPhCONH2 = not defined here; N4DazPhCN = not defined here; N6MeQuion = not defined here; NH3PhSa = not defined here; NH4PhSa = not defined here; N4Inda = not defined here; Pip = O=C(O)[C@@H]1CCCCN1; PPAc″ = not defined here; APAc = not defined here; Dap = NC[C@H](N)C(=O)O
Columns and labels:
[1] = molecular target: T1, Fc-fusion protein of human carbonic anhydrase IX (human, UniProt Q16790 38-414); assay: SPR, captured hCAIX-Fc; pKD category A: >8.0
[2] = molecular target: T1, Fc-fusion protein of human carbonic …; assay: SPR, captured hCAIX-Fc; t1/2 category A: >15.0 min
[3] = molecular target: T2, human carbonic anhydrase IX (CAIX) (human, UniProt Q16790 38-459); assay: FACS competition, HT-29 cells, tracer 3BP-4149; pIC50 category B: 7.1-8.0
Method: (§1) CAIX-expressing human HT-29 colorectal cancer cells (DSMZ, RRID: CVCL_0320) were cultured in McCoys's 5A modified medium (Biochrom, #F1015) including 10% fetal calf serum (FCS), 2 mM L-glutamine, 100 U/ml penicillin and 100 μg/mL streptomycin. Cells were detached with Accutase (Biolegend, #423201) and washed in FACS buffer (PBS including 1% FCS). Cells were diluted in FACS buffer to a final concentration of 500.000 cells per ml. 200 μL of the cell suspension were transferred to a u-shaped non-binding 96-well plate (Greiner) and cells were washed in ice-cold FACS buffer.
(§2) When biotinylated compounds were used an additional incubation step with 1 μg/mL APC-Streptavidin (Miltenyi; #130-106-791) in 50 μL FACS buffer for 30 minutes on ice was performed.
(§3) Cells were washed twice with ice-cold FACS buffer and analyzed in an Attune NxT flow cytometer (Thermo Fisher). Median fluorescence intensities (MFI) of the APC/Cy5-channel were calculated by Attune NxT software.

[4] = molecular target: T2, human carbonic anhydrase IX (CAIX); assay: FACS competition, HT-29 cells, tracer 3BP-4149; pIC50 category A: >8.0
Method: as §1, §2, §3

[5] = molecular target: T1, Fc-fusion protein of human carbonic …; assay: SPR, captured hCAIX-Fc; t1/2 category C: 2.1-5.0 min
Method: Stock solutions of test compounds were prepared by dissolving each compound in DMSO. DMSO stock solution were diluted 1:1000 in Running Buffer without DMSO. […] SPR binding analyses were performed in Single Cycle Kinetic (SCK) mode at 25° C.
For each test compound, SPR raw data in the form of resonance units (RU) were plotted as sensorgrams using the Biacore™ T200 control software. The signal from the blank sensorgram was subtracted from that of the test compound sensorgram (blank corrected). The blank corrected sensorgram was corrected for baseline drift by subtracting the sensorgram of a SCK run without the test compound (running buffer only). […] Raw data and fit results were imported as text files in IDBS. The pKD value (negative decadic logarithm of dissociation constant) was calculated in the IDBS excel template.

[6] = molecular target: T1, Fc-fusion protein of human carbonic …; assay: SPR, captured hCAIX-Fc; t1/2 category B: 5.1-15.0 min

Binder: {DOTA-APAc}-VYCE[dP]E(NH4PhSa)WLTWSC-NH2 (linker 3-12 via mXylylene; reading uncertain) [3BP-4442]
pKD [1]: > 8 pkd | t1/2 (half-life of the complex, SPR) [2]: > 15 min | pIC50 [3]: 7.1 to 8 pic50

Binder: {DOTA-PPAc″}-QCE[dP]D[Aph(5SaPyr2)]LTWSC-NH2 (linker 2-11 via mXylylene; reading uncertain) [3BP-4480]
t1/2 (half-life of the complex, SPR) [5]: 2.1 to 5 min | pIC50 [3]: 7.1 to 8 pic50

Binder: {DOTA-APAc}-VDCE[dP]D[Phe(3-CF3)]LTW[Dap]C-NH2 (lactam 2-11; linker 3-12 via mXylylene; reading uncertain) [3BP-4440]
pKD [1]: > 8 pkd | t1/2 (half-life of the complex, SPR) [6]: 5.1 to 15 min | pIC50 [4]: > 8 pic50

Binder: {DOTA-APAc}-VYCE[dP]E(N4AzPhCONH2)WLTWSC-NH2 (linker 3-12 via mXylylene; reading uncertain) [3BP-4388]
pIC50 [3]: 7.1 to 8 pic50

Binder: {DOTA-APAc}-VYCE[dP]E(N4Inda)WLTWSC-NH2 (linker 3-12 via mXylylene; reading uncertain) [3BP-4387]
pKD [1]: > 8 pkd | t1/2 (half-life of the complex, SPR) [2]: > 15 min | pIC50 [3]: 7.1 to 8 pic50

Binder: {DOTA-APAc}-VYCE[dP]D[Aph(HYDAc)]LTWSC-NH2 (linker 3-12 via mXylylene; reading uncertain) [3BP-4458]
pIC50 [3]: 7.1 to 8 pic50

Binder: {DOTA-APAc}-VYCE[dP]D[Af3(2Ta5Sa)]LTWSC-NH2 (linker 3-12 via mXylylene; reading uncertain) [3BP-4413]
pKD [1]: > 8 pkd | t1/2 (half-life of the complex, SPR) [2]: > 15 min | pIC50 [4]: > 8 pic50

Binder: {DOTA-APAc}-VYCE[dP]D[Af3(3Ta5Sa)]LTWSC-NH2 (linker 3-12 via mXylylene; reading uncertain) [3BP-4412]
pKD [1]: > 8 pkd | t1/2 (half-life of the complex, SPR) [2]: > 15 min | pIC50 [4]: > 8 pic50

B2: 3BP-4489 (peptide)
peptide: {DOTA}-DCE[dP]D[Aph(SaPr)]LTW[Dap]C-NH2
modifications: lactam 1-10; linker 2-11 via mXylylene
SMILES: CC(C)C[C@@H]1NC(=O)[C@H](Cc2ccc(NC(=O)CCS(N)(=O)=O)cc2)NC(=O)[C@H](CC(=O)O)NC(=O)[C@H]2CCCN2C(=O)[C@H](CCC(=O)O)NC(=O)[C@@H]2CSCc3cccc(c3)CSC[C@@H](C(N)=O)NC(=O)[C@H](CNC(=O)C[C@H](NC(=O)CN3CCN(CC(=O)O)CCN(CC(=O)O)CCN(CC(=O)O)CC3)C(=O)N2)NC(=O)[C@H](Cc2c[nH]c3ccccc23)NC(=O)[C@H]([C@@H](C)O)NC1=O
pKD [1]: > 8 pkd | t1/2 (half-life of the complex, SPR) [2]: > 15 min | pIC50 [4]: > 8 pic50

Binder: {DOTA-APAc}-VYCE[dP]D[Aph(3MSaBz)]LTWSC-NH2 (linker 3-12 via mXylylene; reading uncertain) [3BP-4399]
pIC50 [3]: 7.1 to 8 pic50

Binder: {DOTA-APAc}-VYCE[dP]D[Af3(HO-Dga)]LTWSC-NH2 (linker 3-12 via 3MeBn″; reading uncertain) [3BP-4368]
pKD [1]: > 8 pkd | t1/2 (half-life of the complex, SPR) [5]: 2.1 to 5 min | pIC50 [3]: 7.1 to 8 pic50

Binder: {DOTA-PPAc″}-YCE[dP]D[Aph(2Ta5Sa)″]LTWSC-NH2 (linker 2-11 via mXylylene; reading uncertain) [3BP-4457]
pKD [1]: > 8 pkd | t1/2 (half-life of the complex, SPR) [6]: 5.1 to 15 min | pIC50 [4]: > 8 pic50

Binder: {DOTA-APAc}-VYCE[dP]D[Af3(3SaBz)]LTWSC-NH2 (linker 3-12 via mXylylene; reading uncertain) [3BP-4409]
pKD [1]: > 8 pkd | t1/2 (half-life of the complex, SPR) [2]: > 15 min | pIC50 [4]: > 8 pic50

More lines, now with the values ahead:

pKD [1]: > 8 pkd | t1/2 (half-life of the complex, SPR) [2]: > 15 min | pIC50 [3]: 7.1 to 8 pic50
Binder: {DOTA-APAc}-VYCE[dP]E(NH3PhSa)WLTWSC-NH2 (linker 3-12 via mXylylene; reading uncertain) [3BP-4441]

pKD [1]: > 8 pkd | t1/2 (half-life of the complex, SPR) [2]: > 15 min | pIC50 [4]: > 8 pic50
Binder: {DOTA-APAc}-VYCE[dP]D[Aph(3SaBz)]LTWSC-NH2 (linker 3-12 via mXylylene; reading uncertain) [3BP-4408]

pKD [1]: > 8 pkd | t1/2 (half-life of the complex, SPR) [6]: 5.1 to 15 min | pIC50 [4]: > 8 pic50
Binder: {DOTA-APAc}-VDCE[dP]D[Phe(3,4-Cl2)]LTW[Dap]C-NH2 (lactam 2-11; linker 3-12 via mXylylene; reading uncertain) [3BP-4439]

pIC50 [3]: 7.1 to 8 pic50
Binder: {DOTA-APAc}-VYCE[dP]E(N6MeQuion)WLTWSC-NH2 (linker 3-12 via mXylylene; reading uncertain) [3BP-4390]

pIC50 [3]: 7.1 to 8 pic50
Binder: {DOTA-APAc}-VYCE[dP]E(N4DazPhCN)WLTWSC-NH2 (linker 3-12 via mXylylene; reading uncertain) [3BP-4389]

pKD [1]: > 8 pkd | t1/2 (half-life of the complex, SPR) [2]: > 15 min | pIC50 [4]: > 8 pic50
B1: 3BP-4488 (peptide)
peptide: {DOTA}-DCE[dP]D[Phe(3-NHCO(CH2)3SO2NH2)]LTW[Dap]C-NH2
modifications: lactam 1-10; linker 2-11 via mXylylene
SMILES: CC(C)C[C@@H]1NC(=O)[C@H](Cc2cccc(NC(=O)CCCS(N)(=O)=O)c2)NC(=O)[C@H](CC(=O)O)NC(=O)[C@H]2CCCN2C(=O)[C@H](CCC(=O)O)NC(=O)[C@@H]2CSCc3cccc(c3)CSC[C@@H](C(N)=O)NC(=O)[C@H](CNC(=O)C[C@H](NC(=O)CN3CCN(CC(=O)O)CCN(CC(=O)O)CCN(CC(=O)O)CC3)C(=O)N2)NC(=O)[C@H](Cc2c[nH]c3ccccc23)NC(=O)[C@H]([C@@H](C)O)NC1=O

pKD [1]: > 8 pkd | t1/2 (half-life of the complex, SPR) [2]: > 15 min | pIC50 [3]: 7.1 to 8 pic50
Binder: {DOTA-PPAc}-DCE[dP]D[Aph(SaPr)]LTW[Dap]C-NH2 (lactam 1-10; linker 2-11 via mXylylene) [3BP-4498]

pKD [1]: > 8 pkd | t1/2 (half-life of the complex, SPR) [2]: > 15 min | pIC50 [3]: 7.1 to 8 pic50
B3: 3BP-4456 (peptide)
peptide: {DOTA}-[Pip]YCE[dP]D[Phe(3-NHCO(CH2)3SO2NH2)]LTWSC-NH2
modifications: linker 3-12 via mXylylene
SMILES: CC(C)C[C@@H]1NC(=O)[C@H](Cc2cccc(NC(=O)CCCS(N)(=O)=O)c2)NC(=O)[C@H](CC(=O)O)NC(=O)[C@H]2CCCN2C(=O)[C@H](CCC(=O)O)NC(=O)[C@@H](NC(=O)[C@H](Cc2ccc(O)cc2)NC(=O)[C@@H]2CCCCN2C(=O)CN2CCN(CC(=O)O)CCN(CC(=O)O)CCN(CC(=O)O)CC2)CSCc2cccc(c2)CSC[C@@H](C(N)=O)NC(=O)[C@H](CO)NC(=O)[C@H](Cc2c[nH]c3ccccc23)NC(=O)[C@H]([C@@H](C)O)NC1=O

pKD [1]: > 8 pkd | t1/2 (half-life of the complex, SPR) [2]: > 15 min | pIC50 [4]: > 8 pic50
Binder: {DOTA-APAc}-VDCE[dP]D[Phe(3-NHCO(CH2)3SO2NH2)]LTW[Dap]C-NH2 (lactam 2-11; linker 3-12 via mXylylene; reading uncertain) [3BP-4445]

pIC50 [3]: 7.1 to 8 pic50
Binder: {DOTA-APAc}-VYCE[dP]D[Af3(OPyAc)]LTWSC-NH2 (linker 3-12 via mXylylene; reading uncertain) [3BP-4370]
